Measured values published in the RNAGym collection of RNA variant scans (doi:10.1093/molbev/msab373).

B1: Azoarcus group I ribozyme (parent)
chain: GUGCCUUGCGCCGGGAAACCACGCAAGGGAUGGUGUCAAAUUCGGCGAAACCUAAGCGCCCGCCCGGGCGUAUGGCAACGCCGAGCCAAGCUUCGGCGCCUGCGCCGAUGAAGGUGUAGAGACUAGACGGCACCCACCUAAGGCAAACGCUAUGGUGAAGGCAUAGUCCAGGGAGUGGCGAAAGUCACACAAACCGG

Variants of: B1
Experiment: reverse-splicing fitness (ratio to wild type); higher = more active; in vitro selection; Mg2+ level not given
Procedure, shortened: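 An in vitro group I ribozyme library with randomized positions was T7-transcribed and gel-purified. In triplicate, 10 pmol RNA in EPPS pH 7.5 was reacted with 50 pmoles of a 30-nt RNA substrate for 1 h at 37 °C across several added MgCl2 levels (1–48 mM), then stopped with EDTA. Products were reverse transcribed from a substrate-complementary primer, PCR-amplified and sequenced (HiSeq 4000). Fitness is a variant's read proportion after selection over that before, normalised to wild type.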
C82A A120C A145U C150A C169A gave a reverse-splicing fitness of 0.0105.
For C82A A120C A145U C150A C169U, the reverse-splicing fitness was 0.00955.
In the case of C82A A111U C150U U176A, the reverse-splicing fitness is reported as 0.0473.
C82A A111U C150U U176G gave a reverse-splicing fitness of 0.0161.
Work on C82A A111U C150U U176C yielded a reverse-splicing fitness of 0.0751.
C82A A111U A145U C150A C169U gave a reverse-splicing fitness of 0.0108.
C82A A111U A145U C150A C169A gave a reverse-splicing fitness of 0.0092.
Variant C82A A111U A145U C150A C169G has a reverse-splicing fitness of 0.00786.
Variant C82A A120C A145U C150G U176C has a reverse-splicing fitness of 0.0141.
With C82A A120C A145U C150G U176A the reverse-splicing fitness was 0.00792.
Work on C82A A120C A145U C150G U176G yielded a reverse-splicing fitness of 0.00376.
In the case of C82A A111U C150A C169U U176G, the reverse-splicing fitness is reported as 0.00835.
With C82A A111U C150A C169U U176A the reverse-splicing fitness was 0.0167.
C82A A111U C150A C169U U176C showed a reverse-splicing fitness of 0.0171.
With C82A A120C A145C C169G U176A the reverse-splicing fitness was 0.031.
For C82A A120C A145C C169G U176C, the reverse-splicing fitness was 0.0239.
With C82A A120C A145C C169G U176G the reverse-splicing fitness was 0.00536.
C82A A111U C150A C169U showed a reverse-splicing fitness of 0.0125.
For C82A A111U C150A C169A, the reverse-splicing fitness was 0.0117.
In the case of C82A A111U C150A C169G, the reverse-splicing fitness is reported as 0.00884.
C82A A120C A145G C150A C169G U176A showed a reverse-splicing fitness of 0.0191.
In the case of C82A A120C A145G C150A C169G U176C, the reverse-splicing fitness is reported as 0.0333.
Work on C82A A120C A145G C150A C169G U176G yielded a reverse-splicing fitness of 0.00638.
With C82A A111U C150A C169A U176C the reverse-splicing fitness was 0.0197.
C82A A111U C150A C169A U176A gave a reverse-splicing fitness of 0.0188.
For C82A A111U C150A C169A U176G, the reverse-splicing fitness was 0.00811.
Work on C82A A111U A145U C150G U176A yielded a reverse-splicing fitness of 0.01.
For C82A A111U A145U C150G U176G, the reverse-splicing fitness was 0.00528.
C82A A111U A145U C150G U176C showed a reverse-splicing fitness of 0.0189.
Work on C82A A111U A145G C150U C169U U176C yielded a reverse-splicing fitness of 0.0148.
With C82A A111U A145G C150U C169U U176G the reverse-splicing fitness was 0.00683.
C82A A111U A145G C150U C169U U176A showed a reverse-splicing fitness of 0.0147.
With C82A A111U C150U C169U U176C the reverse-splicing fitness was 0.0146.
With C82A A111U C150U C169U U176G the reverse-splicing fitness was 0.00671.
Work on C82A A111U C150U C169U U176A yielded a reverse-splicing fitness of 0.0146.
C82A A120C A145G C150G C169G U176A showed a reverse-splicing fitness of 0.013.
For C82A A120C A145G C150G C169G U176G, the reverse-splicing fitness was 0.00719.
In the case of C82A A120C A145G C150G C169G U176C, the reverse-splicing fitness is reported as 0.0127.
C82A A111U C150A C169G U176C gave a reverse-splicing fitness of 0.0266.
With C82A A111U C150A C169G U176G the reverse-splicing fitness was 0.00794.
Variant C82A A111U C150A C169G U176A has a reverse-splicing fitness of 0.0202.
With C82A A120C A145C C150G C169U U176G the reverse-splicing fitness was 0.00498.
C82A A120C A145C C150G C169U U176C gave a reverse-splicing fitness of 0.0105.
C82A A120C A145C C150G C169U U176A showed a reverse-splicing fitness of 0.00681.
C82A A111U A145G C150U C169U showed a reverse-splicing fitness of 0.0139.
With C82A A111U A145G C150U C169A the reverse-splicing fitness was 0.0109.
For C82A A111U A145G C150U C169G, the reverse-splicing fitness was 0.00968.
Variant C82A A120C A145G C169A U176C has a reverse-splicing fitness of 0.034.
C82A A120C A145G C169A U176G gave a reverse-splicing fitness of 0.00473.
Work on C82A A120C A145G C169A U176A yielded a reverse-splicing fitness of 0.0242.
For C82A A111U A145G C169G U176C, the reverse-splicing fitness was 0.0304.
Variant C82A A111U A145G C169G U176G has a reverse-splicing fitness of 0.00674.
C82A A111U A145G C169G U176A showed a reverse-splicing fitness of 0.023.
Variant C82A A120C A145G U176C has a reverse-splicing fitness of 0.0683.
C82A A120C A145G U176G gave a reverse-splicing fitness of 0.00861.
For C82A A120C A145G U176A, the reverse-splicing fitness was 0.0426.
Variant C82A A111U A145U C150U C169G U176G has a reverse-splicing fitness of 0.00663.
For C82A A111U A145U C150U C169G U176C, the reverse-splicing fitness was 0.0156.
Variant C82A A111U A145U C150U C169G U176A has a reverse-splicing fitness of 0.0142.
C82A A120C A145G C169U showed a reverse-splicing fitness of 0.0214.
Variant C82A A120C A145G C169A has a reverse-splicing fitness of 0.00985.
Variant C82A A120C A145G C169G has a reverse-splicing fitness of 0.0102.
For C82A A120C A145G C150A U176A, the reverse-splicing fitness was 0.0137.
Work on C82A A120C A145G C150A U176C yielded a reverse-splicing fitness of 0.03.
Work on C82A A120C A145G C150A U176G yielded a reverse-splicing fitness of 0.00982.
For C82A A111U A145G C150U U176A, the reverse-splicing fitness was 0.0694.
C82A A111U A145G C150U U176G showed a reverse-splicing fitness of 0.0191.
C82A A111U A145G C150U U176C gave a reverse-splicing fitness of 0.115.
C82A A111U A145U showed a reverse-splicing fitness of 0.289.
C82A A120C A145G C150A C169G showed a reverse-splicing fitness of 0.00977.
In the case of C82A A120C A145G C150A C169A, the reverse-splicing fitness is reported as 0.0111.
Work on C82A A120C A145G C150A C169U yielded a reverse-splicing fitness of 0.0123.
With C82A A120C A145G C150G C169A U176G the reverse-splicing fitness was 0.00933.
With C82A A120C A145G C150G C169A U176A the reverse-splicing fitness was 0.0141.
In the case of C82A A120C A145G C150G C169A U176C, the reverse-splicing fitness is reported as 0.0128.
With C82A A120C A145C C150A U176A the reverse-splicing fitness was 0.0107.
Variant C82A A120C A145C C150A U176C has a reverse-splicing fitness of 0.0155.
C82A A120C A145C C150A U176G gave a reverse-splicing fitness of 0.00599.
C82A A111U C150G C169G showed a reverse-splicing fitness of 0.00756.
Work on C82A A111U C150G C169A yielded a reverse-splicing fitness of 0.00953.
With C82A A111U C150G C169U the reverse-splicing fitness was 0.0101.
C82A A111U A145U C150G showed a reverse-splicing fitness of 0.0256.
For C82A A111U A145U C150U, the reverse-splicing fitness was 0.181.
Work on C82A A111U A145U C150A yielded a reverse-splicing fitness of 0.0253.
